Positions of bridges follow the written chain, without caps; N, C: chain ends. No end group written: not given here.

These results are taken from patent US20040213833A1 (published 2004).

Common to all, as to test: cell-based or functional assay
Assay [1] concerns the target T1, MMP-2 (matrix metalloproteinase-2, gelatinase), purified enzyme (UniProt P08253 110-660, limits assumed).
T1 sequence (looked up): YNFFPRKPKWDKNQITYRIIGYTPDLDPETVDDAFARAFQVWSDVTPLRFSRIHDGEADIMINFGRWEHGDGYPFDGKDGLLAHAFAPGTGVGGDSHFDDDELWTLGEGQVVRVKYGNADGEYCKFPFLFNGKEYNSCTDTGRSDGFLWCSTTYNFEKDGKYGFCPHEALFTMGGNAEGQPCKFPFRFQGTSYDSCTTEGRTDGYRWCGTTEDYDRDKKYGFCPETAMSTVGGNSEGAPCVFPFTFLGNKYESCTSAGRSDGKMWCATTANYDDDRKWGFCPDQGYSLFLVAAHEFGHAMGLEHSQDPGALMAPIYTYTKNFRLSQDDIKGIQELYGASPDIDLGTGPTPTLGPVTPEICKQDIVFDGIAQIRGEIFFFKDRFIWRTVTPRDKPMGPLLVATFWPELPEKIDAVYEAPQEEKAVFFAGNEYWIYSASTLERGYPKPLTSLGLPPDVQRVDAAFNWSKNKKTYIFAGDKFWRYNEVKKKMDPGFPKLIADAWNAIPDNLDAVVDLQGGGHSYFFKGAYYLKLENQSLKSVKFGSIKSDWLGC

In assay [2] the target is MMP-9 (matrix metalloproteinase-9, gelatinase), purified enzyme (UniProt P14780 107-707, limits assumed).
MMP-9 (matrix metalloproteinase-9, gelatinase), purified enzyme, sequence (P14780 107-707 limits assumed): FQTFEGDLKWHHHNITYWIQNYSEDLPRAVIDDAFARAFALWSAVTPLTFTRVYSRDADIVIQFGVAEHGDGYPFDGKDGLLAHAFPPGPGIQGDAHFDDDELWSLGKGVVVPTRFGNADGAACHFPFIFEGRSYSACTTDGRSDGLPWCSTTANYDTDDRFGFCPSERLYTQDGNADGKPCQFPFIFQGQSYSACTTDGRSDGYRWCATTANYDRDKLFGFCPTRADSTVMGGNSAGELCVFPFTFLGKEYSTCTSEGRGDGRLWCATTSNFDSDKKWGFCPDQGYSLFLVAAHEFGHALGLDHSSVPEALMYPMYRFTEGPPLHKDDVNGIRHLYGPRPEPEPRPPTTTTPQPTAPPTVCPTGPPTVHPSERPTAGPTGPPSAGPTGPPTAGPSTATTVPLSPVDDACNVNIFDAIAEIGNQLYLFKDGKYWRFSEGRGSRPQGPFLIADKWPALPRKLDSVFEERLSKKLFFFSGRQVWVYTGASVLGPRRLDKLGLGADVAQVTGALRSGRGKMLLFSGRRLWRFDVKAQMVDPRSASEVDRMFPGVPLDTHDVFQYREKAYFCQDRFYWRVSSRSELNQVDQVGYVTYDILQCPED
The target of assay [3] is cell surface-bound gelatinases (of HT1080 cells).

B1: STT peptide … (linear analog of CTT) (peptide)
peptide: STTHWGFTLC
Consider B1, for which, in assay [1], the “inhibition of MMP-2 activity, casein zymography (area digested), peptide at 85 uM” value (shortened to “inhibition of MMP-2 activity”) was around 30 % inhibition.

B2: CLP peptide CLPGHWGFPSC (peptide)
peptide: CLPGHWGFPSC
modifications: disulfide 1-11
Consider B2, for which the “inhibition of MMP-2 activity” value in assay [1] came to 50 % inhibition.

B3: CTT peptide CTTHWGFTLC (cyclic, free in solution) (peptide)
peptide: CTTHWGFTLC
modifications: disulfide 1-10
For B3, the “IC50 of inhibition of MMP-9 activity, gelatinase assay with fluorogenic peptide substrate” value in assay [2] worked out at 8 µM. The “inhibition of MMP-2 activity” value in assay [1] was around 70 % inhibition.

B4: CTT peptide … bound to POPC/POPE (80/20 mol/mol) liposomes (peptide)
peptide: CTTHWGFTLC
modifications: disulfide 1-10; also: adsorbed non-covalently to POPC/POPE liposomes
Regarding B4, the transfer of rhodamine B liposomes with CTT into HT1080 cells after preincubation with TIMP-2 (10 µg/ml) in assay [3] amounted to 50 % inhibition.

B5: CTT peptide CTTHWGFTLC bound to POPC/POPE (80/20 mol/mol) liposomes (peptide)
peptide: CTTHWGFTLC
modifications: disulfide 1-10; also: adsorbed non-covalently to POPC/POPE liposomes
Regarding B5, the “IC50 of inhibition of MMP-9 activity, gelatinase assay with fluorogenic peptide substrate” value in assay [2] is 8 µM.
